One assay concerns Human Myelin PLP. Kind of assay: Phage display library screening (Example 2, Python script analysis), binding to Human Myelin PLP. The settings on record: combined unique sequence count, Python/R script analysis. The procedure: (§1) Phage display library screens were used to identify peptides that bind to target proteins (including specific laminin trimers) that are expressed in human nerves, as described in Table 3. These screens were also carried out to identify peptides that could bind selectively to nerves versus muscle. Such peptides could therefore be useful for systemic in-vivo labeling of nerves during fluorescence assisted surgery. Specifically, m 13 phage libraries expressing 7 or 12 random amino acid peptides, or a cyclic peptide CX7C, on the N-terminus of the minor coat protein pIII (New England Biolabs; NEB) were processed through multiple rounds of selection for binding to target proteins expressed in nerves, or to excised human nerves, nerve extracts, or muscle, as described further below.
(§2) For screening against the specified target proteins in Table 1, including LN211, LN411, LN421, and LN521, the phage library was processed by up to 4 binding and wash cycles. For selection, phage libraries were incubated for up to 24 hours at 4° C. in 96 well plates that had been coated with one of the target proteins. Plates were then washed with PBS and phage were eluted using 0.2M glycine pH 2.0. Phage supernatants where then neutralized with Tris pH 9.0 prior to plating on TGI bacteria and LB agar plates. Colonies were counted to determine titer followed by DNA preparation of pools of phage and NextGen sequencing. After rounds of selection, phage were pooled and amplified for iterative selection. Phage that were bound at each round were sequenced. NextGen sequencing of pools after 2, 3 and 4 rounds of selection was used to isolate candidate sequences that were analyzed further to identify those that specifically bound each unique target protein.
(§3) Python Script Analysis: For all NEB sequence datasets, a python script was used to translate, trim, and filter the peptide sequences. The script translated the nucleotide sequences, translating amber codons as glutamine in peptide sequences, and then trimmed the end sequences that come from the vector. Secondly, the script combined the unique counts of trimmed peptides with identical sequences. […] Another python script was used to group peptides from different assays according to protein target (Myelin Protein Zero, Myelin Proteolipid Protein, Myelin Basic Protein, and Nidogen-2) and also combine the unique sequence counts for each peptide. An R script was written to merge the peptide sequences from different data files and determine peptides specific for each protein target but absent from different protein binding datasets. Peptide sequences were ranked by unique sequence count.
On to TTTIADM (Myelin PLP-binding peptide), for which the Count is 26.

As to VFPERRV (Myelin PLP-binding peptide), the Count is listed as 28.

Regarding VGYRSAS (Myelin PLP-binding peptide), the Count was 28.

With VPGHISG (Myelin PLP-binding peptide), the Count turned out to be 27.

Turning to VRTSMNH (Myelin PLP-binding peptide), the Count is reported as 28.

For the substance VSASWMP (Myelin PLP-binding peptide), the Count is recorded as 27.

For VSSQEQA (Myelin PLP-binding peptide), the Count came to 34.

With VTGPGTP (Myelin PLP-binding peptide), the Count amounted to 26.

With VTPNKAR (Myelin PLP-binding peptide), the Count is listed as 26.

For the substance WHYTPSM (Myelin PLP-binding peptide), the Count is recorded as 26.

On to WNTADRL (Myelin PLP-binding peptide), for which the Count was determined as 34.

For the substance WSPHGYK (Myelin PLP-binding peptide), the Count came to 27.

For the substance WSPHRSF (Myelin PLP-binding peptide), the Count was found to be 31.

Turning to WSRISVD (Myelin PLP-binding peptide), the Count was 26.

YSDTYKH (Myelin PLP-binding peptide): the Count worked out at 30.

Turning to YSQAISA (Myelin PLP-binding peptide), the Count came to 27.

As to YSSRLTA (Myelin PLP-binding peptide), the Count amounted to 29.

For the substance YTWTPSR (Myelin PLP-binding peptide), the Count is listed as 28.

In a further assay the target is Human MPZ (human) (UniProt P25189). Put plainly: phage display, NGS count.
Human MPZ (human), sequence (P25189 30-153 limits assumed): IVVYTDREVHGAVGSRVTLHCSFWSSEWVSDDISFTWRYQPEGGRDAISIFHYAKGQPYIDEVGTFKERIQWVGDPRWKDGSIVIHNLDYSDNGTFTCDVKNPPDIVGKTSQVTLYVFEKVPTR
Conditions: not given
Take ALPISYL (peptide): the Count came out at 42.

For the substance AMSNLSY (peptide), the Count stood at 45.

AWTMRAS (peptide): the Count was 39.

DRYLLNQ (peptide): the Count was found to be 40.

Substance FALPAGL (peptide) displayed a Count of 41.

FEHMAVT (peptide) displayed a Count of 42.

The substance FMSDVDH (peptide) showed a Count of 37.

FPSYTIS (peptide) yielded a Count of 40.

For the substance FRVTQTA (peptide), the Count was determined as 41.

Turning to FSPRDVS (peptide), the Count was 39.

Consider FSTTGRG (peptide), for which the Count was 39.

As for GGSKVWG (peptide), the Count is 40.

Turning to GLWRHTM (peptide), the Count was found to be 40.

The substance GPVVSGM (peptide) showed a Count of 46.

GSWSSGF (peptide) registered a Count of 52.

Regarding HHPLFID (peptide), the Count was 39.

As to HLDSRRH (peptide), the Count was found to be 46.

HNQLLYT (peptide) yielded a Count of 38.

HPFPRFD (peptide) showed a Count of 45.

For HPLMVPS (peptide), the Count was 41.

For the substance IEQVGWR (peptide), the Count was determined as 38.

As for ISSVTVV (peptide), the Count came to 37.

KLPTLSV (peptide) returned a Count of 44.

Regarding KQPAMEN (peptide), the Count is 37.

KRNLWDI (peptide) had a Count of 40.

For the substance KTPILAS (peptide), the Count was 38.

In turn, LISPTAR (peptide) displayed a Count of 37.

LPAESHW (peptide) showed a Count of 45.

In turn, LPNANNL (peptide) came in with a Count of 41.

In the case of LSPPRIM (peptide), the Count was found to be 43.

As for LVLQTTP (peptide), the Count is 37.

On to LVLSNPR (peptide), for which the Count worked out at 46.

LVNPFPE (peptide) registered a Count of 39.

On to LWAKRDA (peptide), for which the Count amounted to 38.

Turning to MIHTRQT (peptide), the Count was 41.

MYHDSVS (peptide): the Count turned out to be 47.

In turn, NASVPPK (peptide) displayed a Count of 42.

For NMSHSNR (peptide), the Count was found to be 46.

As for NPISPRN (peptide), the Count stood at 38.

NPTSEGA (peptide) yielded a Count of 37.

Take NTASMTT (peptide): the Count worked out at 38.

QIAHLEY (peptide) registered a Count of 50.

Turning to SAHSVVE (peptide), the Count is 38.

As to SETESYM (peptide), the Count came to 41.

SGHGAFR (peptide): the Count was determined as 42.

As for SNALSYF (peptide), the Count came out at 41.

Take SPNTNSH (peptide): the Count was found to be 40.

As to STHEWRT (peptide), the Count amounted to 45.

Take SVAYVPV (peptide): the Count was determined as 46.

Turning to SYLPPFI (peptide), the Count was 41.

With THSTDLS (peptide), the Count is 37.

Substance TLLHYSA (peptide) returned a Count of 40.

In the case of TTLVVTA (peptide), the Count stood at 42.

In the case of TTWPNTA (peptide), the Count was 45.

The substance VHTPYRS (peptide) gave a Count of 41.

VPLAYLR (peptide) showed a Count of 40.

Regarding VVPLKWI (peptide), the Count worked out at 40.

In the case of WMTNLDP (peptide), the Count is 43.

WPRPIQI (peptide) gave a Count of 41.

Turning to WTSVATA (peptide), the Count was 41.

On to YAPWRVF (peptide), for which the Count turned out to be 37.

The substance YEGERGA (peptide) came in with a Count of 39.

In turn, YGQSITE (peptide) displayed a Count of 37.

In the case of YMKHSPG (peptide), the Count is 45.

The substance YPQARTS (peptide) displayed a Count of 46.

In turn, YSSLTSN (peptide) registered a Count of 38.

A further assay has as its target Human Myelin PLP (human) (UniProt P60201). Put plainly: phage display, NGS count.
Conditions: not given
ATLKPYR (peptide): the Count worked out at 68.

Another assay concerns Human Nidogen-2. Put plainly: Phage display library screening (Example 2, Python script analysis), binding to Human Nidogen-2. Particulars: combined unique sequence count, Python/R script analysis. The procedure: as §1, §2, §3
Consider ALYLPGR (Nidogen-2-binding peptide), for which the Count is recorded as 7.

With ARMAFSL (Nidogen-2-binding peptide), the Count worked out at 7.

In the case of ATYNMSQ (Nidogen-2-binding peptide), the Count is reported as 7.

As for CIHHKGVLC (Nidogen-2-binding peptide), the Count turned out to be 6.

With CKDGHIRHC (Nidogen-2-binding peptide), the Count is recorded as 6.

Take CNLATSLQC (Nidogen-2-binding peptide): the Count is reported as 6.

In the case of CRSPHEPMC (Nidogen-2-binding peptide), the Count was found to be 6.

Take CSFKMNQKC (Nidogen-2-binding peptide): the Count was 8.

For the substance CSSSAPRIC (Nidogen-2-binding peptide), the Count worked out at 9.

Turning to CVDKMASVC (Nidogen-2-binding peptide), the Count is recorded as 6.

Regarding CYSAPTKSC (Nidogen-2-binding peptide), the Count is listed as 6.

In the case of EAMMHRN (Nidogen-2-binding peptide), the Count was determined as 6.

Regarding GLRTMEP (Nidogen-2-binding peptide), the Count is listed as 7.

HSRLPTP (Nidogen-2-binding peptide): the Count came to 13.

LHITPEV (Nidogen-2-binding peptide): the Count worked out at 6.

For the substance LSIRGLT (Nidogen-2-binding peptide), the Count turned out to be 6.

Turning to LVHPFHG (Nidogen-2-binding peptide), the Count was 8.

With NILSQVN (Nidogen-2-binding peptide), the Count is on record as 6.

Regarding QLLESRT (Nidogen-2-binding peptide), the Count came out at 6.

QMDAKHM (Nidogen-2-binding peptide): the Count was 6.

Take QTLRPKQ (Nidogen-2-binding peptide): the Count turned out to be 6.

In the case of TIASLLV (Nidogen-2-binding peptide), the Count was determined as 6.

As for TPWLPTI (Nidogen-2-binding peptide), the Count is given as 7.

Take WLAAGSQ (Nidogen-2-binding peptide): the Count was 6.

With YNHTMMY (Nidogen-2-binding peptide), the Count stood at 7.

The target in another assay is Human Myelin PLP (human) (UniProt P60201). Put plainly: phage display R3, NGS count.
Human Myelin PLP (human), sequence (P60201 2-277 limits assumed): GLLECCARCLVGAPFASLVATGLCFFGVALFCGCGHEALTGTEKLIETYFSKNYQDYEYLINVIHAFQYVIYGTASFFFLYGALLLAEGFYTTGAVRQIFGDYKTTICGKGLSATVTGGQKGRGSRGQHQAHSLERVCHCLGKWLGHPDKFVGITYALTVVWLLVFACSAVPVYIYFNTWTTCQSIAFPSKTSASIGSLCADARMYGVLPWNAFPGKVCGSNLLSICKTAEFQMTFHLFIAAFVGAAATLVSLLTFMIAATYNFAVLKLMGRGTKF
Conditions: not given
ATLKPYR (peptide) registered a Count of 68.

Regarding FPVVTRN (peptide), the Count is 42.

The substance GPFLFTV (peptide) came in with a Count of 47.

MTPHTSC (peptide) returned a Count of 62.

(Values after patent publication US20240207421A1, “NERVE TARGETING PEPTIDES AND METHODS OF USE” (ALUME BIOSCIENCES, INC., priority 2020, published 2024).)
